Test results as given in US20200299389A1 (AP BIOSCIENCES, published 2020).

What was measured:
[1] = biological target: T1, murine PD-L1 (murine, UniProt Q9EP73 19-238, limits assumed); assay: not described
T1 construct: also called rodent PD-L1

[2] = biological target: recombinant PD-L1 protein (UniProt Q9NZQ7 19-238, limits assumed); assay: direct ELISA on coated recombinant PD-L1, anti-human F(ab')2-HRP detection
recombinant PD-L1 protein, sequence (Q9NZQ7 19-238 limits assumed): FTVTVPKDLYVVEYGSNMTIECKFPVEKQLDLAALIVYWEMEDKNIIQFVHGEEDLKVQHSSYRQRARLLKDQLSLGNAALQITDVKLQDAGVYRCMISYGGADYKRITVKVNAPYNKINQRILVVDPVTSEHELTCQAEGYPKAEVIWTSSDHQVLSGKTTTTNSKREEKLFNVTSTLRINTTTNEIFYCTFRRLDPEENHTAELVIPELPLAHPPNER

T1 sequence (Q9EP73 19-238 limits assumed): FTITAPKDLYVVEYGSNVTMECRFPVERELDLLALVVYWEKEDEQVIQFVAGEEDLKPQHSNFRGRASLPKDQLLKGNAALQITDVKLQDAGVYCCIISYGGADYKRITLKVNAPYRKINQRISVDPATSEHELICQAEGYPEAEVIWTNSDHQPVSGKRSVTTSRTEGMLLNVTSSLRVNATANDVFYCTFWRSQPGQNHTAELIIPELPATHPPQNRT

B1: anti-PD-L1 antibody clone 6 (antibody, V domains shown)
VH: QVQLVQSGAEVKKPGSSVKVSCKASGGTFRRYSISWVRQAPGQGLEWMGGIIPVFGAAKYAQKFQGRVTITADEFTSTAYMELSSLTSEDTAVYYCALSGDSDAFDIWGQGTMVTVSS
VL: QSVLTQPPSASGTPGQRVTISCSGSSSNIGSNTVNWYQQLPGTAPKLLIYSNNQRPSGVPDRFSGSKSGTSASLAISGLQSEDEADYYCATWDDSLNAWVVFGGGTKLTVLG
notes: also called PD-L1-Clone 6; anti-PD-L1 clone 6 antibody
Does B1 bind [1]?
Result: no binding

And the EC50 [2]?
Its EC50 is 0.1 nM.
